T1: AtfA::6His (Aspergillus fumigatus AkuB, UniProt Q4WY05 1-555)
T1 sequence: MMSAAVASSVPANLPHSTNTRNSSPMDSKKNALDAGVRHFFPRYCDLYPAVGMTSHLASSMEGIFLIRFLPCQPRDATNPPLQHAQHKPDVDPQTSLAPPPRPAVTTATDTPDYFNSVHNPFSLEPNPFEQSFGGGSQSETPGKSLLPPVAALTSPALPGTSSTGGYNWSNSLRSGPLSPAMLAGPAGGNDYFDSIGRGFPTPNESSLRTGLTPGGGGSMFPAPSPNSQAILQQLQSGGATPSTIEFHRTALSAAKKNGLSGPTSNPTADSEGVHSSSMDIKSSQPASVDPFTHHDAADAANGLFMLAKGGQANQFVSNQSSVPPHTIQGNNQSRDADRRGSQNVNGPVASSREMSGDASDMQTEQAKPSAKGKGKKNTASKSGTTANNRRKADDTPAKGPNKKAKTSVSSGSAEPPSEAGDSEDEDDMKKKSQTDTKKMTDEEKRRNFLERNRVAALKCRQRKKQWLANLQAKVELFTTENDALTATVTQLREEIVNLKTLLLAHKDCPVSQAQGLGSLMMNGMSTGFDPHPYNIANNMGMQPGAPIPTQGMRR


Assays:
AtfA::6His = biological target: T1, AtfA::6His; assay: EMSA
GST::PacC (30-195*) = GST::PacC (30-195*) (Aspergillus nidulans? (plasmid …, UniProt Q00202 30-195)); assay: EMSA
GST::PacC (30-195*) (Aspergillus nidulans?, sequence (Q00202 30-195): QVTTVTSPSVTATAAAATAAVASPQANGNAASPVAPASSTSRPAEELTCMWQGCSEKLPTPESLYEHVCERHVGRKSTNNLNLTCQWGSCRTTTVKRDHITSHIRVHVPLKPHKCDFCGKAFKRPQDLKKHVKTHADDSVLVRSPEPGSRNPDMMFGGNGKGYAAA

Binder | binding result (AtfA::6His) | binding result (GST::PacC (30-195*))
A-142 probe (DprA promoter) (dsDNA) DNA 1: GGGCTCCCCGGCTTCTTGACGTAACCCCCAGACATGA DNA 2: GGGTCATGTCTGGGGGTTACGTCAAGAAGCCGGGGAG | binds | 
PacC probe (DprB promoter, -264) (dsDNA) DNA 1: GGGTCGATCCAGGTACCGCCAGGGGTTGATATGACAG DNA 2: GGGCTGTCATATCAACCCCTGGCGGTACCTGGATCGA |  | binds
A-23 probe (DprA promoter) (dsDNA) DNA 1: GGGCAGTTCAAATACAGAACGTCACAAATCTTACACA DNA 2: GGGTGTGTAAGATTTGTGACGTTCTGTATTTGAACTG | binds | 

From article PMC3103405
